Where two headings read alike, the source gives them in different places. Ends that are not written are not given here. * marks the point of attachment. Biotin = O=C1N[C@H]2[C@H](CS[C@H]2CCCCC(=O)*)N1
T1: human Fn14 (human, UniProt Q9NP84 28-129)
T1 sequence: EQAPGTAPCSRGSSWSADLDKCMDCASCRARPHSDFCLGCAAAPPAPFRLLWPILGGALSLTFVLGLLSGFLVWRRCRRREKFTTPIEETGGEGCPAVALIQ

T2: synthetic peptide hFn14 sub-domain 1p (human, biotin on the added C-terminal lysine)
T2 construct: synthesised by GLBiochem
T2 peptide: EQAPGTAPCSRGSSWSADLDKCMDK

T3: synthetic peptide hFn14 sub-domain 2 (human, biotin on the added C-terminal lysine; disulfide bonds as in the solution structure of He et al. 2009)
T3 construct: also called sub-domain 2 peptide
T3 peptide: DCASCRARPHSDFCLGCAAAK

T4: synthetic peptide hFn14 sub-domain 3 (human, cysteine pairing not given here)
T4 construct: also called sub-domain 3 peptide
T4 peptide: ASCRARPHSDFCLGK(Biotin)

T5: Histidine tagged mouse Fn14 extracellular domain (mouse, UniProt Q9CR75 28-80)
T5 construct: extracellular domain; also called mFn14; not shown: (His)6 tag from pET-15b
T5 sequence (looked up): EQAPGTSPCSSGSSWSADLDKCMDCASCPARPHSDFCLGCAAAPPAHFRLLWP

T6: synthetic peptide Sub-domain 2 Cys 3&6 ΔS (human, not fully specified; biotin on the added C-terminal lysine)
T6 construct: also called sub-domain 2 cys3&6ΔS mutant
T6 peptide: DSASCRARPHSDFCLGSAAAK


Legend:
human Fn14 [1] = biological target: T1, human Fn14; test: cell-based or functional assay
human Fn14 [2] = biological target: T1, human Fn14; test: cell-based or functional assay; remark: listed apart in the source
[3] = biological target: T2, synthetic peptide hFn14 sub-domain 1p; test: ELISA on biotinylated synthetic peptide
Method: (§1) Peptides representing sub-domains 1p, 2 and 3 of hFn14 (FIG. 20, Panels B and C and FIG. 14, Panel A) and for disulfide pair mutants (Cys3&6ΔS and Cys4&5ΔS; FIG. 20 Panels D and E) were synthesized by GLBiochem Ltd. (Shanghai, China) and the cysteine residues for disulfide bonds were chosen as described in the solution structure by He et al., (2009). An additional lysine residue was added to the C-terminus in order to attach a biotin moiety and to enable the peptides to bind to neutravidin coated plates (Pre-blocked; Pierce). For these experiments, a control peptide with a biotin at the C-terminus was used as a negative control and isotype control antibodies were also used.
(§2) The ELISA was performed essentially according to the manufacturer's recommended protocol (Pierce). Briefly, peptide was coated onto wells (in duplicate) at 1-10 μg/ml for 2 hours at room temperature. Wells were washed in PBS/0.05% Tween 20/0.1% BSA 3 times and dilutions of each antibody were added in wash buffer for 1 hour with gentle agitation. After another three washes anti-mouse HRP-conjugated to horse radish peroxidase (HRP; Chemicon) was added at 1/1000 dilution for 1 hour shaking. Finally, after 4 further washes the plate was developed using TMB (3,3′,5,5′-tetramethylbenzidine) substrate (Pierce), and the reaction was stopped using 2M H2SO4 solution. Optical density at 450 nm was quantified using a Spectromax absorbance spectrophotometer.

[4] = biological target: T3, synthetic peptide hFn14 sub-domain 2; test: ELISA on biotinylated sub-domain 2 peptide, mAb at 5 ng/ml
Description: FIG. 21B is a graphical representation showing reactivity of anti-Fn14 mAbs CRCBT-06-001, CRCBT-06-002, CRCBT-06-003, CRCBT-06-004, CRCBT-06-005, CRCBT-06-006, CRCBT-06-007 and ITEM-1 with a synthetic peptide representing sub-domain 2 of Fn14. Plates were coated with sub-domain 2 peptide and various dilutions of antibody were allowed to bind, bound antibody was detected with anti-mouse HRP and TMB substrate. The average of duplicate readings are plotted, error bars represent standard deviations. The ELISA was repeated to ensure consistent results. The vertical line at 5 ng/ml within the linear part of the curves is the point at which a comparison of the reactivity of each mAb was analyzed.
as §1
as §2, with “Finally, after 4 further washes the plate was developed using TMB (3,3′,5,5′-tetramethylbenzidine) substrate (Pierce), and the reaction was stopped using 2M H2SO4 solution.” left out

[5] = biological target: T4, synthetic peptide hFn14 sub-domain 3; test: ELISA on biotinylated sub-domain 3 peptide, mAb at 0.2 ug/ml
Method: An additional lysine residue was added to the C-terminus in order to attach a biotin moiety and to enable the peptides to bind to neutravidin coated plates (Pre-blocked; Pierce). For these experiments, a control peptide with a biotin at the C-terminus was used as a negative control and isotype control antibodies were also used.
as §2
The reactivity of CRCBT-06-001 CRCBT-06-002, CRCBT-06-003, CRCBT-06-004, CRCBT-06-005, CRCBT-06-006 and CRCBT-06-007 with sub-domain 3 was lower than for sub-domain 2, indicating this region may be a partial epitope for these antibodies. However, the differences in binding to this region could reveal subtle variations in the contact regions of the antibodies with hFn14. The order of binding from strongest to weakest was CRCBT-06-005, CRCBT-06-002, CRCBT-06-001, CRCBT-06-006, CRCBT-06-007 and ITEM-1. The relative binding of each antibody to sub-domain 3 at a single point in the linear region of the curves was measured at 0.2 µg/ml (FIG. 21C). […] This could indicate the epitope of ITEM-1 may differ slightly to the CRCBT antibodies based on weaker interaction with surface exposed residues in sub-domain 3.

[6] = biological target: T7, phage-displayed hFn14 extracellular domain (human, UniProt Q9NP84 28-77); test: phage ELISA, antibody on plate, 10-fold phage dilutions
T7 construct: also called FN14 Ectodomain; FN14 Ecto
Method: Each normalized preparation was 10-fold serially diluted and added in solution to the MAbs attached to the solid phase. ELISAs shown here were performed simultaneously with the same preparations of phage. Binding was detected using HRP-conjugated anti-M13 phage polyclonal IgG and TMB substrate. Optical density at 450 nm was quantified using a Spectramax spectrophotometer. Error bars for each dilution represent the standard deviation of duplicate assays. […] ELISAs were performed under similar conditions to those described for Panel A. Methods according to Epitope mapping using phage expressed Fn14—Method 1.
The wells of Maxisorp immunoplates (Nunc) were coated overnight at 4° C. with the target monoclonal antibodies or recombinant Tweak-Fc at a concentration of 2 μg/mL in PBS. MAb 5G8 was used as a negative control for ELISA plates coated with tested antibodies. Recombinant Fc alone was used as a negative control for ELISA plates coated with recombinant Tweak-Fc. […] 10-fold serial dilutions of phage were made using 5% skim milk/PBS solution in 2 ml-well microtiter plates and phage dilutions were added to the coated, blocked ELISA plates for 1 hr, with vigorous shaking at room temperature. Phage were subsequently removed from the wells and the ELISA plates were washed 4× with PBS/0.05% Tween 20. […]

[7] = biological target: T8, Histidine tagged hFn14 extracellular domain, bacterially expressed (human, UniProt Q9NP84 28-77); test: ELISA on coated His-tagged protein
T8 construct: also called recombinant Fn14; recombinant human Fn14; not shown: (His)6 tag from pET-15b

[8] = biological target: T7, phage-displayed hFn14 extracellular …; test: phage ELISA, antibody on plate, 10-fold phage dilutions; remark: listed apart in the source
Method: Each normalized preparation was 10-fold serially diluted and added in solution to the MAbs attached to the solid phase. All ELISAs shown were performed simultaneously with the same preparations of phage. Binding was detected using HRP-conjugated anti-M13 phage polyclonal IgG and TMB substrate. Optical density at 450 nm was quantified using a Spectramax spectrophotometer. Error bars for each dilution represent the standard deviation of duplicate assays. In this figure, reference to “FN14 Ecto” is a reference to the extracellular domain of hFn14. Methods according to Epitope mapping using phage expressed Fn14—Method 1.
The wells of Maxisorp immunoplates (Nunc) were coated overnight at 4° C. with the target monoclonal antibodies or recombinant Tweak-Fc at a concentration of 2 μg/mL in PBS. MAb 5G8 was used as a negative control for ELISA plates coated with tested antibodies. Recombinant Fc alone was used as a negative control for ELISA plates coated with recombinant Tweak-Fc. […] 10-fold serial dilutions of phage were made using 5% skim milk/PBS solution in 2 ml-well microtiter plates and phage dilutions were added to the coated, blocked ELISA plates for 1 hr, with vigorous shaking at room temperature. […] Optical density at 450 nm was quantified using a Spectramax absorbance spectrophotometer.

[9] = biological target: T5, Histidine tagged mouse Fn14 …; test: ELISA with purified His-tagged mouse Fn14; x axis 'Log (c)' without unit, µg/ml by the legend
[10] = biological target: T9, His tagged hFn14 extracellular region mutant R56P (human, UniProt Q9NP84 28-77); test: ELISA with purified His-tagged hFn14 R56P; x axis 'Log (c)' without unit, µg/ml by the legend
T9 construct: also called R56P mutant; not shown: (His)6 tag

[11] = biological target: T10, His tagged hFn14 extracellular region mutant R56A (human, UniProt Q9NP84 28-77); test: ELISA with purified His-tagged hFn14 R56A; x axis 'Log (c)' without unit, µg/ml by the legend
T10 construct: not shown: (His)6 tag

[12] = biological target: T11, His tagged hFn14 extracellular region mutant R56K (human, UniProt Q9NP84 28-77); test: ELISA with purified His-tagged hFn14 R56K; x axis 'Log (c)' without unit, µg/ml by the legend
T11 construct: not shown: (His)6 tag

[13] = biological target: T6, synthetic peptide Sub-domain 2 Cys 3&6 …; test: peptide ELISA: biotinylated synthetic peptide on neutravidin plate, antibody titrated (legend: 0.1-0.0001 µg/ml; axis 'Log (c)'), anti-mouse HRP, TMB, OD 450 nm

| Binder | NFκB-GFP reporter in HEK293T cells (human Fn14 [1]) [µg/mL] | % Agonist, IL-8 secretion by A375 cells (human Fn14 [2]) [%] | % Antagonist, IL-8 secretion by A375 cells (human Fn14 [2]) [%] | binding result [3] | % decrease in binding compared to CRCBT-06-001 and CRCBT-06-002 [4] [%] | % decrease in binding compared with CRCBT-06-005 [5] [%] | binding result [6] | binding result [7] | binding result [8] | binding result [9] | binding result [10] | binding result [11] | binding result [12] | binding result [13] |
| --- | --- | --- | --- | --- | --- | --- | --- | --- | --- | --- | --- | --- | --- | --- |
| CRCBT-06-007 (antibody, IgG2b, V domains shown) VH: QVKLEESGGVLVQPGGSMKLSCIASGFSFSKYWMNWVRQSPEKGLEWVAEIRVKSNNYATHYAESVKGRFIISRDDSKSSVYLQMNNLRAEDTGIYYCTKSYADYFDYWGQGTTLTVSS VL: DIVMTQSTASLAVSLGQRATISCRASQSVSTSSYSYMHWYQQKPGQPPKVLIKYASNLESGVPARFSGSGSGTDFTLNIHPVEEEDAATYYCQHSWEIPYTFGGGTKLEIKR | 1 | 16 | 89 | no binding | 48 | 73 | binds | – | – | – | – | – | – | – |
| CRCBT-06-005 (antibody, IgG2b, V domains shown) VH: QVQLQESGGGLVQPGGSMKLSCVASGFTFSYYWMNWVRQSPEQGLEWIAEIRLQSNDYPTHYAESVKGRFTISRDDSKNSVYLQMNNLRPEDTGIYYCACRYADYFDHWGQGTTLTVSS VL: DIVLTQTTASLTVSLGQRATISCRASQSVSTSTYSYMHWYQQTPGQPPTVLIKYASSLESGVPTRFSGSGSGTDFTLNIHPVEEEDTATYYCQHSWEIPYTFGGGTKLEIKR | 1 | 26 | 92 | no binding | 40 | – | – | binds | binds | binds | binds | binds | binds | binds |
| CRCBT-06-006 (antibody, IgG2a, V domains shown) VH: QVQLQESGGGLVQPGGSMKLSCVASGFTFSYYWMNWVRQSPEQGLEWIAEIRLQSNDYPTHYAESVKGRFTISRDDSKNSVYLQMNNLRPEDTGIYYCACRYADYFDHWGQGTTLTVSS VL: DIVITQSPASLTVSLGQRATISCRASQSVSTSTYSYMHWYQQTPGQPPTVLIKYASSLESGVPTRFSGSGSGTDFTLNIHPVEEEDTATYYCQHSWEIPYTFGGGTKLEIKR | 1 | 106 | – | no binding | 76 | 73 | – | – | binds | – | – | – | – | – |

Reference: patent publication US20200239586A1 (LA TROBE UNIVERSITY, published 2020)
